The series is described as follows: protein stability index of a GFP-peptide fusion (GPS, HEK-293T) (PSI 1-6); higher = more stable.
[1] abbreviates: treatment: DMSO, c terminus: a fixed tail appended.
The mark [2] stands for this setting: treatment: MLN4924 1 uM, 8 h, c terminus: a fixed tail appended.

For 72 sequences, protein stability index results are on record in the supplement of paper PMC10567573.

± gives the standard deviation.
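Further: 24-mer peptide tiles fused after GFP, lentivirally expressed, FACS-sorted into six equal bins by GFP/DsRed ratio, decoded by Illumina sequencing, PSI is the read-weighted mean bin number.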

On to DSYSSSRSDLYSSGRDRVGRQERG [RBMX], for which the protein stability index by setting is: under setting [1], 4.72 ± 0.059; under setting [2], 4.84 ± 0.22. DSYSSTQHVPEELDLSSSSQMSPL [ATF6] had a protein stability index under setting [1] of 5.29 ± 0.12 and a protein stability index under setting [2] of 5.28 ± 0.073. For the sequence DTGVAFELRDSSAYHVPNRTLASG [DNAAF3], the protein stability index under setting [1] came out at 3.87 ± 0.18 and the protein stability index under setting [2] is 3.94 ± 0.054. The corresponding values for DVDLTIHGRHIDCPATWGPSVEQA [FOXJ1] are 3.95 ± 0.16 and 3.94 ± 0.3. The like results for DVFERDWYSPYAKTLQPTKQPNCS [PLD5] were, in that order, 3.49 ± 0.54 and 3.24 ± 0.15.

With DVRLLPRRLPLAFRDATSAPLRKL [DYRK1B], the protein stability index came to 3.17 ± 0.27 under setting [1] and 3.02 ± 0.15 under setting [2]. The corresponding values for DVVFEIQGTTVPAHRAILVARCEV [RHOBTB3] are 2.69 ± 0.85 and 2.51 ± 0.44. As to DYMKEVGVGFATRKVAGMAKPNMI [FABP4], the protein stability index is, setting by setting: under setting [1], 3.13 ± 0.48; under setting [2], 3.06 ± 0.64. The like results for EADINGLRRVLDELTLSKTDLEMQ [KRT13] were, in that order, 4.32 ± 0.079 and 4.26 ± 0.3. In turn, EAEALAGTGLVLDEQLNEFHCLWD [HDAC6] had a protein stability index under setting [1] of 4.29 ± 0.061 and a protein stability index under setting [2] of 4.15 ± 0.45. The corresponding values for EAECEKSSATTYFWYREALDISDS [SLC6A17] are 3.94 ± 0.36 and 3.83 ± 0.29. With EAEDQEEKEDAEKENIEKDEDDVD [SRPK2], the protein stability index was found to be 5.66 ± 0.32 under setting [1] and 5.79 ± 0.2 under setting [2].

Turning to EAMYHCCWNTSYCSIKCQQEHWHA [ZMYND11], the protein stability index amounted to 2.3 ± 0.45 under setting [1] and 2.65 ± 0.43 under setting [2]. As for EATKEVHTQAENAEFMRNFQKGQV [HMOX1], the protein stability index by setting is: under setting [1], 5.04 ± 0.17; under setting [2], 5.21 ± 0.23. As for ECFETLRGDERILSILRHQNLLKE [CHGA], the protein stability index came out at 2.9 ± 0.24 under setting [1] and 2.85 ± 0.34 under setting [2]. The corresponding values for EDERWTNNFREYNLHRVAAHELGH [MMP1] are 3.73 ± 0.19 and 3.62 ± 0.2. The like results for EDFSLPAYMDRRDHPLPEVAHVKH [COX4I1] were, in that order, 4.32 ± 0.28 and 4.59 ± 0.18. For EDSIPLRGLSQNLFSNSDHQRDGT [SASS6], the protein stability index by setting is: under setting [1], 4.94 ± 0.15; under setting [2], 4.99 ± 0.2.

Regarding EDSKELRALRKMVSNMSGPSGEEE [CBY2], the protein stability index reads like this: under setting [1], 5.15 ± 0.21; under setting [2], 5.25 ± 0.13.

As for EEDDDDDDDDNLPQLKKESELPFV [ANKRD40], the protein stability index under setting [1] turned out to be 5.32 ± 0.1 and the protein stability index under setting [2] turned out to be 5.42 ± 0.18. The like results for EEENAQLRGALQQGEAFQRALESE [PBXIP1] were, in that order, 5.43 ± 0.32 and 5.39 ± 0.49. EEMRELRRKIRELQLRYSLRILIG [BEX5]: the protein stability index under setting [1] was 2.76 ± 0.75 and the protein stability index under setting [2] was 2.5 ± 0.51. The like results for EENMERIGEEVRQLMEKLREKQLS [BEX1] were, in that order, 4.57 ± 0.38 and 4.35 ± 0.5. Consider EEQESVDTGEEEEGGDESDLSSES [EHMT1], for which the protein stability index turned out to be 5.57 ± 0.19 under setting [1] and 5.64 ± 0.16 under setting [2]. EESEKAMQERVQRLEAARLSLEEE [LRRC45]: the protein stability index amounted to 5.48 ± 0.2 under setting [1] and 5.57 ± 0.091 under setting [2]. For EEVVSTLDAVQVLSGVSQLLPKSR [FCHO1], the protein stability index reads like this: under setting [1], 4.3 ± 0.28; under setting [2], 4.43 ± 0.24. In the case of EFFRESVNRFGTYPALASKNGKKW [ACSBG2], the protein stability index under setting [1] was found to be 2.87 ± 0.45 and the protein stability index under setting [2] is 3.2 ± 0.28. The like results for EFLTNELSRKLMQLQHEKAELEQH [CCDC6] were, in that order, 2.98 ± 0.16 and 3.05 ± 0.3. On to EFQMFPKSRLSSVSVTYCSVSQDF [ETS2], for which the protein stability index is, setting by setting: under setting [1], 2.23 ± 0.25; under setting [2], 2.15 ± 0.21. On to EGGEVRFNGKGKKIRKPRTIYCSL [DLX1], for which the protein stability index by setting is: under setting [1], 2.92 ± 0.1; under setting [2], 3.39 ± 0.26.

As to EGSLEWDILEVKRLLDHQDNILSL [WDR41], the protein stability index by setting is: under setting [1], 2.42 ± 0.2; under setting [2], 2.53 ± 0.21.

Consider EGVATYAAAVLFRMSEDKPQDYKK [CTNNB1], for which the protein stability index is, setting by setting: under setting [1], 3.45 ± 0.17; under setting [2], 3.46 ± 0.21. The corresponding values for EHICVNNGNSYICKCSEGFVLAED [MATN2] are 4.61 ± 0.15 and 4.26 ± 0.53. The corresponding values for EIELQAQHNLRDSLENTLTESEAH [KRT34] are 5.3 ± 0.27 and 5.18 ± 0.16. The corresponding values for EIIELLILSGARVNAKDNMWLTPL [ANKRD44] are 3.16 ± 0.2 and 3.3 ± 0.72. As to EITTLRQVLSAKERHLVEIKQKLG [TPD52L1], the protein stability index by setting is: under setting [1], 2.97 ± 0.57; under setting [2], 3.16 ± 0.12. EKNFFPEYNYDWWEKKPFSEDVNW [CHGB]: the protein stability index was found to be 2.78 ± 0.54 under setting [1] and 2.76 ± 0.47 under setting [2]. Consider EKPRVPAFACQVAGCCQVFDALDD [ZNF511], for which the protein stability index came to 3.94 ± 0.22 under setting [1] and 3.99 ± 0.092 under setting [2]. The like results for EKQADFLDKQMSRDEHRARAMKIP [NFE2L1] were, in that order, 4.46 ± 0.16 and 4.58 ± 0.12. For the sequence EKRERALEEVERAILEMKWKVRAE [ZBED2], the protein stability index reads like this: under setting [1], 3.77 ± 0.27; under setting [2], 3.74 ± 0.53. With EKRGCPRTALEYCKLILSLEPDED [TCF25], the protein stability index reads like this: under setting [1], 3.37 ± 0.17; under setting [2], 3.42 ± 0.097. The corresponding values for ELDILPIHPPSGNSDLDPDAQNPM [BTBD10] are 5.45 ± 0.16 and 5.38 ± 0.16. On to ELFIEISRRIPSTDANLPSGGKGF [RAB22A], for which the protein stability index is 2.36 ± 0.33 under setting [1] and 2.14 ± 0.34 under setting [2]. In the case of ELIGDYSKAFLLQTVDGKHQDLKY [CDC25B], the protein stability index reads like this: under setting [1], 2.41 ± 0.18; under setting [2], 2.51 ± 0.29. Consider ELLVYIVFLVDICLLTYGMTSSSA [PKD2L1], for which the protein stability index under setting [1] was 3.19 ± 0.45 and the protein stability index under setting [2] was found to be 2.93 ± 0.67. Consider ELLWKLQTGDPTSPIKLSPTSPVY [MTUS2], for which the protein stability index by setting is: under setting [1], 2.3 ± 0.32; under setting [2], 2.36 ± 0.16. Turning to ELSNILNLSYKQVKTWFQNQRMKS [NANOGP8], the protein stability index under setting [1] is 2.63 ± 0.49 and the protein stability index under setting [2] stood at 2.38 ± 0.43. With ELSTLRNLFKQLPEPLLASSGHC [CEBPB], the protein stability index reads like this: (treatment: DMSO, c terminus: native) 2.12 ± 0.44; (treatment: MLN4924 1 uM, 8 h, c terminus: native) 2.38 ± 0.14. Take ELVVRFFACPSKTDFFKNIMNFID [KCNA1]: the protein stability index stood at 2.32 ± 0.58 under setting [1] and 2.33 ± 0.52 under setting [2]. The corresponding values for ELVYADDYIMDEDQSKLAGLLDLN [ESRRG] are 3.48 ± 0.21 and 3.68 ± 0.21. The like results for EMLTGQERVALANRKRECGNAHYQ [FKBP8] were, in that order, 3.71 ± 0.23 and 3.86 ± 0.27. The like results for ENMVTVGFFSCMGTLCIGAAAFSQ [KCNK9] were, in that order, 3.39 ± 0.5 and 2.91 ± 0.16. As for EPAPGSALSPAGVCGGAQRPGHLP [CDC25B], the protein stability index under setting [1] came out at 4.6 ± 0.15 and the protein stability index under setting [2] amounted to 4.49 ± 0.21. The corresponding values for EPATPEEGEPATQRQDPAAAQEGE [GAGE1] are 5.62 ± 0.13 and 5.61 ± 0.19. The corresponding values for EPGTPSSSPDDKLLTSPRAINNLV [KLHL14] are 4.87 ± 0.16 and 4.91 ± 0.34. As to EPQSEPVRVLDMVAKLESECLKRQ [FBXO34], the protein stability index came to 4.88 ± 0.28 under setting [1] and 4.9 ± 0.054 under setting [2]. The like results for EQFHEAASKMESTIKPRRVEPVCS [CHCHD6] were, in that order, 4.42 ± 0.31 and 4.61 ± 0.14. The corresponding values for ERAAAQARRELQAEREALQARLRD [ZBED3] are 5.27 ± 0.21 and 5.33 ± 0.22. Regarding EREAEKEQKRLERLQRKLVEPKHC [SDE2], the protein stability index came out at 4.7 ± 0.17 under setting [1] and 4.82 ± 0.085 under setting [2].

Regarding EREEEDDALDSEGRDSEGPAEGEG [KCNG1], the protein stability index is, setting by setting: under setting [1], 5.55 ± 0.29; under setting [2], 5.74 ± 0.12.

As to ERLASANLRVLVDCILRDTSEDLR [TEKT4], the protein stability index under setting [1] came to 2.21 ± 0.48 and the protein stability index under setting [2] was 2.05 ± 0.15.

ERLKANDNLKFSQEYESIDPGQQF [PTPRD] had a protein stability index under setting [1] of 4.21 ± 0.12 and a protein stability index under setting [2] of 4.22 ± 0.16.

For the sequence ERPWIKRMIFKLFSQETVMKFVPR [APMAP], the protein stability index turned out to be 2.71 ± 0.75 under setting [1] and 2.48 ± 1.1 under setting [2]. For the sequence ESDPSDPNKDMVVQLIDDFKISGM [SRPK2], the protein stability index is 4.82 ± 0.3 under setting [1] and 4.8 ± 0.26 under setting [2]. The corresponding values for ESKVREATNDDPWGPSGQLMGEIA [CLINT1] are 4.7 ± 0.12 and 4.78 ± 0.096. The corresponding values for ESSSPARGIAIVSVLVILISIVIF [KCNA4] are 3.13 ± 0.59 and 2.9 ± 0.33.

As for ESTLYPNPYHQPYISRKYFATRPG [TPRG1], the protein stability index was determined as 2.76 ± 0.43 under setting [1] and 3.03 ± 0.088 under setting [2]. The corresponding values for ESVADLLALEEPVDYKQSVLNVAG [SLC6A17] are 4.43 ± 0.1 and 4.58 ± 0.24. On to ETLLGDPEKRTQYFDPLRNEYFFD [KCNA4], for which the protein stability index is, setting by setting: under setting [1], 2.91 ± 0.48; under setting [2], 3.81 ± 0.9. For the sequence ETPGCATLLPASLFVNSHPGIDRP [DCAF4], the protein stability index by setting is: under setting [1], 3.61 ± 0.3; under setting [2], 3.75 ± 0.1. On to ETQKLLCKNGETLLGAVNFFVSSI [ARFIP2], for which the protein stability index came to 2.49 ± 0.52 under setting [1] and 2.25 ± 0.36 under setting [2]. ETVYAAYLPKNTHPFLYLSLEISP [MLH1]: under setting [1], the protein stability index stood at 2.82 ± 0.51.
